Reference: patent US20220251219A1 (published 2022)

Columns and labels:
[1] = target: human Sortilin (human, UniProt Q99523 78-830); test: cell-based or functional assay
[2] = target: T1, recombinant human Sortilin (human, UniProt Q99523 78-830); test: flow cytometry, 293 cells expressing recombinant human Sortilin, 10 ug/ml antibody
T1 construct: also called hSort; SORT1
Protocol: (§1) Cells were harvested, plated at 10⁵/ml in a 96 well plate, washed, and incubated in 100 μl PBS containing 10 μg/ml Mab and 2% FBS for 1 hour in ice. Cells were then washed twice and incubated in 100 μl PBS+2% FBS containing 5 μg/ml PE-conjugated anti-human secondary antibody for 30 minutes in ice. Cells were washed twice in cold PBS and data was acquired on a BD FACS Canto. Data analysis and calculation of MFI values was performed with FlowJo (TreeStar) software version 10.0.7.

[3] = target: T2, recombinant mouse Sortilin (mouse, UniProt Q6PHU5 74-825); test: flow cytometry, 293 cells expressing recombinant mouse Sortilin, 10 ug/ml antibody
T2 construct: also called mSort
Protocol: as §1

Row | Fold increase in Progranulin levels in U251 cells [1] | Percent reduction of Sortilin levels in U251 cells [1] | MFI [2] | MFI [3] | Binder
1 |  | 22.1% |  |  | anti-Sortilin antibody S-74 (antibody, V domains shown) VH: QVQLQESGPGLVKPSQTLSLTCTVSGGSISSGTYYWSWIRQHPGKGLEWIGYIYYSGSTYYNPSLKSRVTISVDTSKNQFSLKLSSVTAADTAVYYCARGVGRYRVADYWGQGTLVTVSS VL: EIVMTQSPATLSLSPGERATLSCRASQSVSSYLAWYQQKPGQAPRLLIYDSSNRATGIPARFSGSGSGTDFTLTISSLEPEDFAVYYCQQETNMPPITFGGGTKVEIK
2 |  | 48.1% |  |  | anti-Sortilin antibody S-83 (antibody, V domains shown) VH: QLQLQESGPGLVKPSETLSLTCTVSGGSISSSSYYWGWIRQPPGKGLEWIGSIYYSGSTYYNPSLKSRVTISVDTSKNQFSLKLSSVTAADTAVYYCARGSPTWLRDYYMDVWGKGTTVTVSS VL: EIVLTQSPATLSVSPGERATLSCRASQSVSSNLAWYQQKPGQAPRLLIYGASTRATGIPARFSGSGSGTEFTLTISSLQSEDFAVYYCQQYNAFPPTFGGGTKVEIK
3 |  |  | 7480 MFI | 21800 MFI | anti-Sortilin antibody S-61 (antibody, V domains shown, IgG) VH: QVQLQESGPGLVKPSETLSLTCAVSGYSISSGYYWGWIRQPPGKGLEWIGSIYHSGSTYYNPSLKSRVTISVDTSKNQFSLKLSSVTAADTAVYYCARGSPRFYYGSGSYLDLFDIWGQGTMVTVSS VL: EIVMTQSPATLSVSPGERATLSCRASQSVSSNLAWYQQKPGQAPRLLIYGASTRATGIPARFSGSGSGTEFTLTISSLQSEDFAVYYCQEYLNYPITFGGGTKVEIK
4 |  | 23% |  |  | anti-Sortilin antibody S-69 (antibody, V domains shown) VH: QVQLQESGPGLVKPSQTLSLTCTVSGGSISSGGYYWSWIRQHPGKGLEWIGYIYYSGSTYYNPSLKSRVTISVDTSKNQFSLKLSSVTAADTAVYYCARDRGGTHFGADHYYYGMDVWGQGTMVTVSS VL: EIVMTQSPATLSVSPGERATLSCRASQSVSSSLAWYQQKPGQAPRLLIYGASTRATGIPARFSGSGSGTEFTLTISSLQSEDFAVYYCQQAADWPITFGGGTKVEIK
5 |  | 37.4% |  |  | anti-Sortilin antibody S-64 (antibody, V domains shown) VH: QVQLQESGPGLVKPSETLSLTCAVSGYSISSGYYWGWIRQPPGKGLEWIGSIYHSGSTYYNPSLKSRVTISVDTSKNQFSLKLSSVTAADTAVYYCARAEHRGPRYFDLWGRGTLVTVSS VL: DIQMTQSPSSLSASVGDRVTITCRASQSINSYLNWYQQKPGKAPKLLIYAASSLQSGVPSRFSGSGSGTDFTLTISSLQPEDFATYYCQQLDSTPITFGGGTKVEIK
6 |  | 20.3% |  |  | anti-Sortilin antibody S-76 (antibody, V domains shown) VH: QVQLQESGPGLVKPSQTLSLTCTVSGGSISSGGYYWSWIRQHPGKGLEWIGSIYYSGSTYYNPSLKSRVTISVDTSKNQFSLKLSSVTAADTAVYYCARGVGIQQQLVLGFDPWGQGTLVTVSS VL: DIQMTQSPSSLSASVGDRVTITCRASQSISSFLNWYQQKPGKAPKLLISAASSLQSGVPSRFSGSGSGTDFTLTISSLQPEDFATYYCQQSYREPITFGGGTKVEIK
7 |  | 37.3% |  |  | anti-Sortilin antibody S-65 (antibody, V domains shown) VH: QVQLQESGPGLVKPSETLSLTCAVSGYSISSGYYWGWIRQPPGKGLEWIGSIYHSGSTYYNPSLKSRVTISVDTSKNQFSLKLSSVTAADTAVYYCAREGQLPTGTFDYWGQGTLVTVSS VL: not shown
8 |  |  | 7930 MFI |  | anti-Sortilin antibody S-64 (antibody, V domains shown, IgG) VH: QVQLQESGPGLVKPSETLSLTCAVSGYSISSGYYWGWIRQPPGKGLEWIGSIYHSGSTYYNPSLKSRVTISVDTSKNQFSLKLSSVTAADTAVYYCARAEHRGPRYFDLWGRGTLVTVSS VL: DIQMTQSPSSLSASVGDRVTITCRASQSINSYLNWYQQKPGKAPKLLIYAASSLQSGVPSRFSGSGSGTDFTLTISSLQPEDFATYYCQQLDSTPITFGGGTKVEIK
9 |  |  | 8070 MFI | 17900 MFI | anti-Sortilin antibody S-65 (antibody, V domains shown, IgG) VH: QVQLQESGPGLVKPSETLSLTCAVSGYSISSGYYWGWIRQPPGKGLEWIGSIYHSGSTYYNPSLKSRVTISVDTSKNQFSLKLSSVTAADTAVYYCAREGQLPTGTFDYWGQGTLVTVSS VL: not shown

Second part, the binder before the results:

Row | Binder | Fold increase in Progranulin levels in U251 cells [1] | Percent reduction of Sortilin levels in U251 cells [1] | MFI [2] | MFI [3]
10 | anti-Sortilin antibody S-60 (antibody, V domains shown) VH: QVQLQESGPGLVKPSETLSLTCAVSGYSISSGYYWGWIRQPPGKGLEWIGTIYHSGSTYYNPSLKSRVTISVDTSKNQFSLKLSSVTAADTAVYYCARQGSIKQGYYGMDVWGQGTTVTVSS VL: not shown | 2.24 fold | 59.5% |  | 
11 | anti-Sortilin antibody S-12 (antibody, V domains shown) VH: QVQLVQSGAEVKKPGASVKVSCKASGYTFTSYGISWVRQAPGQGLEWMGWISAYNGNTNYAQKLQGRVTMTTDTSTSTAYMELRSLRSDDTAVYYCARDLPKYKWGWFDPWGQGTLVTVSS VL: not shown |  | 12% |  | 
12 | anti-Sortilin antibody S-12 (antibody, V domains shown, IgG) VH: QVQLVQSGAEVKKPGASVKVSCKASGYTFTSYGISWVRQAPGQGLEWMGWISAYNGNTNYAQKLQGRVTMTTDTSTSTAYMELRSLRSDDTAVYYCARDLPKYKWGWFDPWGQGTLVTVSS VL: not shown |  |  | 9760 MFI | 18800 MFI
13 | anti-Sortilin antibody S-40 (antibody, V domains shown, IgG) VH: not shown VL: EIVMTQSPATLSLSPGERATLSCRASQSVSSYLAWYQQKPGQAPRLLIYDASNRATGIPARFSGSGSGTDFTLTISSLEPEDFAVYYCQQRSALPFTFGGGTKVEIK |  |  | 7410 MFI | 2630 MFI
14 | anti-Sortilin antibody S-51 (antibody, V domains shown, IgG) VH: QVQLVESGGGVVQPGRSLRLSCAASGFTFSSYGMHWVRQAPGKGLEWVAVISYDGSNKYYADSVKGRFTISRDNSKNTLYLQMNSLRAEDTAVYYCAKGLEYYDSSRLYYPYYYYMDVWGKGTTVTVSS VL: EIVLTQSPATLSLSPGERATLSCRASQSVSSYLAWYQQKPGQAPRLLIYDASKRATGIPARFSGSGSGTDFTLTISSLEPEDFAVYYCQQRSNYPITFGGGTKVEIK |  |  | 12200 MFI | 21900 MFI
15 | anti-Sortilin antibody S-10 (antibody, V domains shown, IgG) VH: QVQLVQSGAEVKKPGASVKVSCKASGYTFTSYGISWVRQAPGQGLEWMGWISAYNGNTNYAQKLQGRVTMTTDTSTSTAYMELRSLRSDDTAVYYCARDPGGYGPTLYYYYGMDVWGQGTTVTVSS VL: EIVMTQSPATLSVSPGERATLSCRASQSVSSNLAWYQQKPGQAPRLLIYGASTRATGIPARFSGSGSGTEFTLTISSLQSEDFAVYYCQQYADWPPITFGGGTKVEIK |  |  | 8660 MFI | 19400 MFI
16 | anti-Sortilin antibody S-55 (antibody, V domains shown, IgG) VH: QVQLQESGPGLVKPSETLSLTCAVSGYSISSGYYWGWIRQPPGKGLEWIGSIYHSGSTYYNPSLKSRVTISVDTSKNQFSLKLSSVTAADTAVYYCARGRPELGWDKYFQHWGQGTLVTVSS VL: DIQMTQSPSSVSASVGDRVTITCRASQGISRWLAWYQQKPGKAPKLLIYAASSLQSGVPSRFSGSGSGTDFTLTISSLQPEDFATYYCQQANALPTFGGGTKVEIK |  |  | 9480 MFI | 21400 MFI
17 | anti-Sortilin antibody S-4 (antibody, V domains shown, IgG) VH: not shown VL: EIVMTQSPATLSVSPGERATLSCRASQSVSSNLAWYQQKPGQAPRLLIYGASTRATGIPARFSGSGSGTEFTLTISSLQSEDFAVYYCQQFRVLPPTFGGGTKVEIK |  |  | 9120 MFI | 15700 MFI
18 | anti-Sortilin antibody S-48 (antibody, V domains shown, IgG) VH: QVQLVESGGGVVQPGRSLRLSCAASGFTFSSYGMHWVRQAPGKGLEWVAVISYDGSNKYYADSVKGRFTISRDNSKNTLYLQMNSLRAEDTAVYYCARESGDRATLVYYYYYGMDVWGQGTTVTVSS VL: EIVMTQSPATLSVSPGERATLSCRASQSVSSNLAWYQQKPGQAPRLLIYSASTRATGIPARFSGSGSGTEFTLTISSLQSEDFAVYYCQQYNSWPITFGGGTKVEIK |  |  | 8140 MFI | 11900 MFI
19 | anti-Sortilin antibody S-58 (antibody, V domains shown, IgG) VH: QVQLQESGPGLVKPSETLSLTCAVSGYSISSGYYWGWIRQPPGKGLEWIGSIYHSGNTYYNPSLKSRVTISVDTSKNQFSLKLSSVTAADTAVYYCARGPPELGKMYFQHWGQGTLVTVSS VL: EIVLTQSPATLSVSPGERATLSCRASQSVSSNLAWYQQKPGQAPRLLIYGASTRATGIPARFSGSGSGTEFTLTISSLQSEDFAVYYCQQDRKGPLTFGGGTKVEIK |  |  | 7770 MFI | 15100 MFI
20 | anti-Sortilin antibody S-9 (antibody, V domains shown, IgG) VH: QVQLVQSGAEVKKPGASVKVSCKASGYTFTSYGISWVRQAPGQGLEWMGWISAYNGNTNYAQKLQGRVTMTTDTSTSTAYMELRSLRSDDTAVYYCARDPGGYGPTLYYYYGMDVWGQGTTVTVSS VL: EIVMTQSPATLSVSPGERATLSCRASQSVSSNLAWYQQKPGQAPRLLIYGASTRATGIPARFSGSGSGTEFTLTISSLQSEDFAVYYCQQYNIYPLTFGGGTKVEIK |  |  | 10300 MFI | 22200 MFI
21 | anti-Sortilin antibody S-6 (antibody, V domains shown, IgG) VH: not shown VL: EIVMTQSPATLSVSPGERATLSCRASQSVSSNLAWYQQKPGQAPRLLIYGASTRATGIPARFSGSGSGTEFTLTISSLQSEDFAVYYCQQVANYPRTFGGGTKVEIK |  |  | 11100 MFI | 25600 MFI
22 | anti-Sortilin antibody S-16 (antibody, V domains shown, IgG) VH: QVQLVQSGAEVKKPGSSVKVSCKASGGTFSSYAISWVRQAPGQGLEWMGGIIPIFGTANYAQKFQGRVTITADESTSTAYMELSSLRSEDTAVYYCARSPYSGTRDFDLWGRGTLVTVSS VL: DIQMTQSPSSVSASVGDRVTITCRASQGISSWLAWYQQKPGKAPKLLIYAASNLQSGVPSRFSGSGSGTDFTLTISSLQPEDFATYYCQQGNSYPITFGGGTKVEIK |  |  | 6280 MFI | 
23 | anti-Sortilin antibody S-2 (antibody, V domains shown, IgG) VH: not shown VL: DIQMTQSPSSLSASVGDRVTITCRASQSISSYLNWYQQKPGKAPKLLIYAASSLQSGVPSRFSGSGSGTDFTLTISSLQPEDFATYYCQQSDVSPITFGGGTKVEIK |  |  | 8430 MFI | 22400 MFI
